Assay: soluble fraction after stress (log2 fold change); higher = more stays soluble; pooled small domains, quantitative proteomics
Settings: stress: 75 degC
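Also: 20 min heating vs room temperature control held 20 min.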

Sequence | soluble fraction (log2)
HMQRYFLEEAYQPSEKFELSAEAFHHIVHVMRMKPKDRVYLAFSDQQVIIAEITEITEEKVYLTEIEKEE | -3.23
HMQRYYDVLGLQKGVSPEELKKTYRELSKKYHPDAHHNSPLRDLAEAKFKEINEAYEKIKEFLDNNF | -0.207
HMQSAKLSYSDFMQKVNAGDVVSVKIQGPKISGVTTGGGKFMTYAPEDPTLVSTLMQKKVEVMAEP | 0.139
HMQSAMALTKDLIEQQGKYYHRGQPFTGVGFAKNKKGKFVTEEPFKNGLLHGKRVNYDHNGHVLAREK | -0.105
HMQSEESTHIGERMLNQALRAMHVEPSAVKEKQWEKLIRDYSVKNKQDILTDIGLGKRQSVMVAHQLLAI | -0.165
HMQSEISRIGRILKERRLQLGYTQEYAAEKAGISYSYYTKIERGQQLPSLEVAMVLSKTFSLSMDRWL | -4.78
HMQSFIEELLPVVDNFERSLAVVDPSDEIKNFLKGYEMIYNQLMEVLKSQGVEVIKTEGEEFDPNFHQA | -0.121
HMQSHIVPDVKSQHIAQAKALLESKQMKAVVIDSNFVKGLPAGIVLDQTPIGGARVKENRTIYLTINTL | -1.56
HMQSMEIDENEIPSIDKLSEYIEYFKRIYNALFDDKQLAITNIDVLERHFANNFNTLRFKMDE | 0.169
HMQSNDAGELEAVVKGIIDANPKVVADYLAGNQKVVSFFVGQAMKATKGKANPKMVSEILGKLL | -0.0975
HMQSQIAQLYNPLLGYVKKRINSREDAEDLTQDIFLKLSKSNKDGVDNLKSWLYTIAKNTITDYYRKKKII | -0.0844
HMQSREISYSDFVASVERGEVATVILDGENIRFKGGDNVEYVTVRPADTNVTDLLIENQVVVRAEK | 0.231
HMQSTVSTHQKTLALDTAQSGIPVFPVSSTHKRPLTDHGYKDATADADAVRKIWQQFPSAFV | 0.28
HMQSVKTQPLRDWLLAHFDKPYPDDEDKVRLAEASGMTRAQVGNWFINARVRTWRPMVLDLGEEIERESV | -0.325
HMQTEFVISSGEQPKRLDVFLLQREPYLSRAALQRMIAAGWVRVNNHLAKSSQRIKAGDVIVFD | -1.42
HMQTFGTMIAALRKEQGMTQLELAEKMGVTDKAVSKWERDLSFPDVNSLPKLAEIFHVSVDEL | -0.16
HMQTLGADLRALRKARGLTLTDMAETLGRSVGWLSQVERDLSEPSITDLRHMARTLGVSVSMLFS | -1.52
HMQTLQNNLKQIRSRVGLTQGELASRAGISRQAYSTLESGNANPSTEVSLRLAEALNERIESLFFLANQ | -0.495
HMQTSETVYTTDKVNVRAGADTSSDKLGSVEKGTSLTRTGTDGDWSIIDYNGTTGYIKSEYLSATAPE | 0.566
HMQTTKTGTITASSLYVRSGASTSHKVLGTVSKGKTVQIKDTQDGWHKISYNGDHGWVSGKYVSTT | 0.226
HMQTTVHLSPEEMVIMNALKQESPIDLPILRAQVEMSNKLWDTSMKNLSKLGQLKVEKIGEQVSVSLI | -0.582
HMQVAPDLMQRLTSQGHVDEKLSDALVHARQITNFEGRRRQMQFIGKLMRKLSEESIEAVKDALNEQRM | -0.313
HMQVDENNINKRIDKYLSENTEYSRSTIQKMIDNGNITVNSKPTKSSYKLELNDIITIDNNFKE | 0.0359
HMQVEYTRGELIQDLEGGKIVYAGISPSRETPTGEVNFILDSGLTRTLYVTDVSEIEQLLISYDIDPEVKK | -0.0196

Sequence | soluble fraction (log2)
HMQVFDSNEIDEVVKKVIENNPQAVADFKKGKSNALQFLAGQVMRETKGRFNPNVVQERIRLLLT | 0.671
HMQVLLTRREKEILKLIAEGLTSAEIGKRLFISTTTVDTHRKHLLEKLKAGNTAILIKTAVQLDLI | -2.53
HMQVPWYQRLKEKRLEYGVSQNKLATHIGISRQYMSEIETGKVTPSDSLQATLFDILEQFNPDA | -0.817
HMQVRVERSRDKVVISGVNYYIHPVRKGETVYSIARAYGITTQDLVRENPSAAEGLKEGQSIRIPERLVD | -0.438
HMQVSDEGPIKAILQEVLDKSPTQLADYASGKVKLRQYFFGEAMKALKGKANPQVINKLLDEMLPPVAA | -0.0324
HMQVSDVTELRTILEKVITENESVATEFKEGKDAAMNFLVGQGMKATRGAADPALLKEIITGIL | -0.0525
HMQVSITGYLGGEKIGLFDDAKFKALAAKQGIAIDYRKAGSPAMMDADRKGMDYLFPSSRAAVEYGNAKGV | -0.00209
HMQVTDTGTIEGEIDKVLAANPDRVTEYHDGKEKILGWFVGQVMQTTKGKANPQMVNQLFLEKLK | 0.0105
HMQVTPQVLRLLDVLGDKELSLRQIAEALGLSDRKNIMRNYVVPALDSGRVVRTVPNKPNSRFQKYRK | -0.739
HMQYDALVLNLLQEKNLTSESLKDAQRAFAKSHNLSTLPSKSQILQAYFQLLEQGKIEKNPDFELLL | -0.394
HMQYFDIETEIQKFIKSENNLSDFDKETLQSFLYQLSKGSPEENTAKKVVDILNKFLPLTTAIINMIKALT | 0.0503
HMQYYITKIANYDQVSPNLLVRTAEGQYMVKTNADILDTDVTKLTEEEIRKDWGYLFENGFSELV | -0.498
HMRAAEPTTDAQRDRRRRIVLTAMTMLQERGYDEIQMRDVAQQAGVALGTLYRYFPSKEQLFAHVLVE | -1.71
HMRAAFEHLTIGQTVSGLVKSQARGVSLVEIEGQTVAMRLPQPVAVGDTLRLRFAGHMPQPVFLLDT | -1.59
HMRADYVGGLDPAGDNFLALRTGPGSGYAMILPMGPGTFVTVLRRNGKWLLVELEDGTRGWAYGSYILG | -2.32
HMRAGALTTLTERERNVFDLVVTGHSNPEIARQLSIADVTVKTHVGHILSKLGVRDRVHLVIWAHRQGLAD | -2.84
HMRAMWENLFFQYKEGFLPEEYYKQGIATGIRLAGPKFVEMNIPMQKEFEDEVHRLLAEHEKSVK | -0.914
HMRASVTYVVQVNGKLRGKLEVAPDIDPEELKKLALEVENVKHSLQGWTVKKVIVIPGKMVSIAAGK | -1.78
HMRAVEGKRLKRLLRTNLIAIERDQILQYPLRKRPLAIVTRAVRATNPDAVIVNDAGDDVFARALDVLLAS | -1.44
HMRDAKSQLQEALQKSGRLPEYELVSVEGPPHAPVFTYRVRIDGAVVGEGQGASKQAAQQAAAQSALKSG | 0.0311
HMRDDAIQQGREIVERELHRLDLAYTTLTDVLAKLEYEKLDDLYAAVGFGIRSPHSVAAAALQVERDKA | -0.322
HMRDGHEQLQGVLSAIKFHQANFLIGVLDDGTTVKGNMLSPQVGLEYTFRGRRERHPRWGEQFAFMDYRV | -3.31
HMRDIGKNIRYYREKKGYSQEQLAQLLFVTRQTVSNYETSRSRPDVETLVKLAGLLDIDVTDLIYGPR | -2.74
HMRDKSITFSEFVKLLDEGQIQKVTLTGNEILGTQKSGDKFRTYAPPQYEGLGNKLVERSVEVTAKE | 0.378

Sequence | soluble fraction (log2)
HMRDLVTYVVQVNGKLRGKLEVSPSTDDNSLKTMALELENVQRALEGLSVKKVIVIPGKMVSIAAG | -0.972
HMRDVVVVPDLSGLTQMEALSKLDAESLNIGEINYGVSEMPEGVIFKQDPVYGTELMKGDTVDIFISGR | -0.423
HMRDYKTHLQEVLQSKGEVNIWYKLIDEKGPDHNKKFVMQVGIDSKILGFGEGKSKKEAEQVAARKALDNI | -0.384
HMREGIQLGDPVRVIRDPLFGKIGAVSGLPSELRAIPTESEVRVLEVRFPDGTTTVVPRANIEVIEG | 0.487
HMREIEVNYAAGDSVRVIDGPLAGFIGVVSSVEPDKNKVNVTVSMFGRETPVELELDQVETLD | 0.111
HMREISSDELHSLFSADQRGDLVINETTRLSIEKLYALHTPEEREAKVNELSGVLPSEAHRQLVHFLDYFD | -1.42
HMREITVEELYELEGIRIVGTIPGISAWVAESGRQMVFLVGQKVKGHDLLEVGESRVVLRKGDSVVNVLL | -1.56
HMREKPRETFQRIAEKVGQTLRKGPVRVQQMDLLFSESREQVMEVLRAMAESGEIRIQDDTLHWNGHT | 0.173
HMRELPKRPEIRYAAGDRVFHKAFGNGLVKQVAQTAGGARVTVDFGEGKGVKTFAGDAPMIKI | 0.391
HMRELSDFEKLLFTTTLERKMINLAMLLTRSNKADSKDLIQDSYLKAIENQVQFNGNNIDAWVITILKNTF | -0.352
HMRENAARNRNVNLDIGETLRVDAWSPERRARVQYRGAAWDVELAPNAPATVGEFRIVEVRGNVLVVTP | -0.604
HMREPIPVPSRPIRAGDLVEIPGTNRPAEVTAVKGDRLVLKAGVLSMTVKNDEVRLIEDDERAAM | 0.505
HMREQAHEVAGKLGYPVMVKASAGGGGKGIRIVRTEDELDQAFEAAQSETKAAFGDDQMYMEKVI | -0.0878
HMRESDQSTVELSLERTIQEALMVNPRTSSVEEFSFEWGTGRVKVSFIVYSVDGEPFTVDSIIE | -2.45
HMREVEAPRDLLAALGERPGALDAWKALSFTHQREYVEAIEDARKPETRERRIANAVKMVAERS | 0.386
HMREVPHGEYEVKIEKLELVESKAGDPMVTVWFKVLAGDYKGSMIFMNQVITKGFQIHIMNEFLR | -0.308
HMREYEKAVDYVRRMISSGSLNVGDRLPTERELSLELDISRNSTREAMRMLENMGIIVSRHGSGNYISGN | -0.682
HMRFDADELQKAYDLFDADENTPFKTIKQAYYALARRHHPDKNGDQEYFKVINNAFQLIQEHRRRRDN | -0.437
HMRFGNHHVYRTLMVLSDQKRKGRKQIADAVGIGEGSMRTIIEYLRGLDMIDIRQTGVKITRHGNAFL | -0.115
HMRGAARRDRAVGERAVSKDTILDATRALLRKGSALEIRAIDIAEESGLSRQTVFQYYPVIRLIFFELSD | -0.00574
HMRGETSYANDIIKRLKQANLIVVEGTLYPLLNRLKKDGLLHYEWRESQQGPPRKYYGLTEEGEA | -0.273
HMRGFGEVGQLPSGRYRARYTGPDGGRHSAPITFVARIDAEGWLVDQERMISRGEWEPPARQ | -0.238
